From article PMC6851490, “Target highlights in CASP13: Experimental target structures through the eyes of their authors” (Proteins, 2019)

Assays:
Bd2924 = biological target: T1, Bd2924 (Bdellovibrio bacteriovorus, UniProt Q6MJ59); test: X-ray crystal structure, […] Å; assay type: binding; settings: without C10-CoA; one FAD per monomer at the dimer interface
T1 construct: crystal structure residues 3 to 505; homo-tetramer (dimer of dimers)
T1 sequence (Q6MJ59 3-505): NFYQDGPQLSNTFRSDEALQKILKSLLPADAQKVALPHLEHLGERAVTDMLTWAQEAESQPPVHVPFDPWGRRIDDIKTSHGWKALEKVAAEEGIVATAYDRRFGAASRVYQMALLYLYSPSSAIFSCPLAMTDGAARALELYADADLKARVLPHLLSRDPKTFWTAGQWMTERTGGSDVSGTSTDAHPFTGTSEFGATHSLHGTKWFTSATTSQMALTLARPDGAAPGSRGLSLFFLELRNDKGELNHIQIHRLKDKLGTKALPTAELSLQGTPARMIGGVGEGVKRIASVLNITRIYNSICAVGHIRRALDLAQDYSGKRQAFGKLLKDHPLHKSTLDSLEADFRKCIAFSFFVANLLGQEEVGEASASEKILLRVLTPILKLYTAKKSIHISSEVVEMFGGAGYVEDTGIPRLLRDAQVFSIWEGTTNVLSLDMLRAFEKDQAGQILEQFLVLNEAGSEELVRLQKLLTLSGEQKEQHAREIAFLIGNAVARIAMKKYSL

[1] = biological target: Afp7, tube initiator of the antifeeding prophage (AFP) (Serratia entomophila); test: cryo-EM structure; needle of the AFP particle, threefold symmetric, 3.4 Å, PDB 6RBK
[2] = biological target: Afp8, needle protein of the antifeeding prophage (AFP) (Serratia entomophila); test: as above
[3] = biological target: Afp16, cap protein of the antifeeding prophage (AFP) (Serratia entomophila); test: cryo-EM structure; apical end cap of the AFP particle in the extended state, sixfold symmetric, 3.3 Å, PDB 6RAP
[4] = biological target: Bd2924, putative acyl-CoA dehydrogenase (ACAD) from B. bacteriovorus (B. bacteriovorus); test: SEC; Bd2924 in solution, size exclusion chromatography
[5] = biological target: Bd2924, putative acyl-CoA dehydrogenase (ACAD) from B. bacteriovorus (B. bacteriovorus); test: crystal structure; Bd2924 with FAD, with and without C10-CoA, PDB 6SD8 and 6SDA
[6] = biological target: CdiI^Kp342 immunity protein (Klebsiella pneumoniae 342); test: crystal structure; CdiA-CT•CdiI complex from K. pneumoniae 342, PDB 6CP9, 2.55 Å
[7] = biological target: Pentafunctional AROM complex from Chaetomium thermophilum (Chaetomium thermophilum); test: crystal structure; CtAROM, X-ray, 3.00 Å, no PDB id
[8] = biological target: Pentafunctional AROM complex from Chaetomium thermophilum (Chaetomium thermophilum); test: not stated; CtAROM before crystallisation; homodimer of about 340 kDa; method not given
[9] = biological target: gp37 (distal part) of the Salmonella phage S16 long tail fiber (Salmonella phage S16); test: crystal structure; distal part of gp37 connected to gp38, phage S16, PDB 6F45, 1.70 Å
[10] = biological target: the molecule itself; test: crystal structure; recombinant AxlA with cleaved xyloglucan oligosaccharide, PDB 6DRU, 2.7 Å; quaternary assembly examined with EPPIC
[11] = biological target: the molecule itself; test: crystal structure; MAJIN-TERB2 core complex, PDB 6GNX, X-ray, 2.90 Å

With `Cc1cc2nc3c(=O)[nH]c(=O)nc-3n(C[C@H](O)[C@H](O)[C@H](O)COP(=O)(O)OP(=O)(O)OC[C@H]3O[C@@H](n4cnc5c(N)ncnc54)[C@H](O)[C@@H]3O)c2cc1C` [FAD] the “X-ray crystal structure, 1.51 Å” value (Bd2924) was “A single FAD molecule binds per monomer in a crevice located at the dimer interface”.

For “Afp7, tube initiator of the antifeeding prophage (AFP) (natural protein)”, the stoichiometry N [1] was 6.

In the case of “Afp8, needle protein of the antifeeding prophage (AFP) (natural protein)”, the stoichiometry N [2] is reported as 3.

Work on “Afp16, cap protein of the antifeeding prophage (AFP) (natural protein)” yielded a stoichiometry N [3] of 6.

“Bd2924, putative acyl-CoA dehydrogenase (ACAD) from B. bacteriovorus (enzyme)” gave a stoichiometry N [4] of 4 and a stoichiometry N [5] of 4.

With “CdiI^Kp342 immunity protein (natural protein)” the stoichiometry N [6] was 2.

In the case of “Pentafunctional AROM complex from Chaetomium thermophilum (enzyme)”, the stoichiometry N [7] is reported as 2 and the stoichiometry N [8] is reported as 2.

Molecule “gp37 (distal part) of the Salmonella phage S16 long tail fiber (domain or fragment)” has a stoichiometry N [9] of 3.

B1: α-xylosidase from Aspergillus niger (AxlA), glycoside hydrolase family 31 (enzyme, UniProt G3XMN9 19-736, looked up)
chain: TYFAPNSTGLRIQHGFETILIQPFGYDGFRVRAWPFRPPSGNEISFIYDPPIEGYEDTAHGMSYDTATTGTEPRTLRNGNIILRTTGWGGTTAGYRLSFYRVNDDGSETLLTNEYAPLKSLNPRYYYWPGPGAEFSAEFSFSATPDEQIYGTGTQQDHMINKKGSVIDMVNFNSYIPTPVFMSNKGYAFIWNMPAEGRMEFGTLRTRFTAASTTLVDYVIVAAQPGDYDTLQQRISALTGRAPAPPDFSLGYIQSKLRYENQTEVELLAQNFHDRNIPVSMIVIDYQSWAHQGDWALDPRLWPNVAQMSARVKNLTGAEMMASLWPSVADDSVNYAALQANGLLSATRDGPGTTDSWNGSYIRNYDSTNPSARKFLWSMLKKNYYDKGIKNFWIDQADGGALGEAYENNGQSTYIESIPFTLPNVNYAAGTQLSVGKLYPWAHQQAIEEGFRNATDTKEGSACDHVSLSRSGYIGSQRFCSMIWSGDTTSVWDTLAVQVASGLSAAATGWGWWTVDAGGFEVDSTVWWSGNIDTPEYRELYVRWLAWTTFLPFMRTHGSRTCYFQDAYTCANEPWSYGASNTPIIVSYIHLRYQLGAYLKSIFNQFHLTGRSIMRPLYMDFEKTDPKISQLVSSNSNYTTQQYMFGPRLLVSPVTLPNVTEWPVYLPQTGQNNTKPWTYWWTNETYAGGQVVKVPAPLQHIPVFHLGSREELLSGNVF
notes: AxlA, Aspergillus niger, UniProt G3XMN9; also called T1009; source: recombinant
B1 was tested, and the “stoichiometry N” value [10] was 2.

B2: MAJIN (core of the human MAJIN-TERB2 complex) (domain or fragment)
chain: GSMSLKPFTYPFPETRFLHAGPNVYKFKIRYGKSIRGEEIENKEVITQELEDSVRVVLGNLDNLQPFATEHFIVFPYKSKWERVSHLKFKHGEIILIPYPFVFTLYVEMKWFHE
notes: MAJIN, human, the part in the MAJIN-TERB2 core complex; also called T0980s1; H0980 subunit A
In the case of B2, the “stoichiometry N” value [11] is reported as 2.
